Experimental data from patent US20190062453A1 (Hoffmann-La Roche, published 2019).
Numbering of substitutions follows the chain as printed. In names and notes the source's numbering stands. Read-outs that look alike come from different tables or passages of the source. Each block holds one binder with its values, some of them ahead of it.

Experiments:
human FAP on cells = target: T1, human FAP on cells (human, UniProt Q12884 1-760); experiment: FACS on recombinant HEK293 cells expressing human FAP
T1 construct: whole, on cells; also called human FAP expressed on recombinant HEK293 cells; FAP on GM05389 fibroblasts

[1] = target: T2, Human FAP ectodomain + poly-lys-tag + his6-tag (human, UniProt Q12884 27-760); experiment: Affinity human, method not stated
T2 construct: also called recombinant soluble human FAP; hFAP

[2] = target: murine FAP on recombinant 3T3 cells (murine, UniProt P97321 1-761); experiment: cell-based or functional assay
[3] = target: T3, cynomolgus DR5 in the TagLite assay (cynomolgus); experiment: TagLite TR-FRET on cells
T3 construct: also called cy DR5 (TagLite)

[4] = target: T2, Human FAP ectodomain + poly-lys-tag + …; experiment: SPR (Biacore), bispecific antibody bound to immobilised human DR5-Fc, recombinant human FAP as second analyte (simultaneous binding)
[5] = target: T4, Cynom. DR5 (ECD)-AcTev-Fc-Avi (cynomolgus); experiment: SPR (Biacore), affinity, 2+2 captured and DR5 injected
T4 construct: also called cynomolgus DR5; cy DR5

[6] = target: T5, human DR5 (recombinant, fusion format not stated for the assay) (human, UniProt O14763 56-207); experiment: as above
T5 construct: all antigen constructs carry ECD aa 56-207; also called hu DR5; huDR5

[7] = target: T4, Cynom. DR5 (ECD)-AcTev-Fc-Avi; experiment: SPR (Biacore), 2+2 over immobilised DR5 ECD
[8] = target: T5, human DR5 (recombinant, fusion format …); experiment: SPR (Biacore), 2+2 over immobilised DR5 ECD
[9] = target: T2, Human FAP ectodomain + poly-lys-tag + …; experiment: SPR, bispecific captured by anti human IgG (Fc), human FAP 5 µg/ml
[10] = target: T2, Human FAP ectodomain + poly-lys-tag + …; experiment: SPR (Biacore), bispecific antibody bound to immobilised human DR5-Fc, recombinant soluble human FAP as second analyte (simultaneous binding)
[11] = target: T6, Murine FAP ectodomain + poly-lys-tag + his6-tag (murine, UniProt P97321 27-761); experiment: SPR (Biacore), bispecific antibody bound to immobilised human DR5-Fc, recombinant soluble murine FAP as second analyte (simultaneous binding)
T6 construct: also called recombinant soluble murine FAP

[12] = target: T7, Hu DR5 (ECD)-AcTev-Fc-Avi (human); experiment: SPR (Biacore), biotinylated human DR5-Fc on a streptavidin chip, bispecific antibody as first analyte
T7 construct: dimeric Fc fusion, biotinylated on the Avi tag where immobilised on streptavidin; also called human DR5-Fc; huDR5Fc

[13] = target: T2, Human FAP ectodomain + poly-lys-tag + …; experiment: SPR (Biacore), bispecific antibody bound to immobilised human DR5-Fc, recombinant soluble human FAP as second analyte (simultaneous binding); remark: listed apart in the source
[14] = target: T7, Hu DR5 (ECD)-AcTev-Fc-Avi; experiment: SPR (Biacore), biotinylated human DR5-Fc on a streptavidin chip, bispecific antibody as first analyte; remark: listed apart in the source
[15] = target: T6, Murine FAP ectodomain + poly-lys-tag + …; experiment: SPR (Biacore), bispecific antibody bound to immobilised human DR5-Fc, recombinant soluble murine FAP as second analyte (simultaneous binding); remark: listed apart in the source

binding result (human FAP on cells): binds
B1: 4G8 IgG (antibody, V domains shown)
VH: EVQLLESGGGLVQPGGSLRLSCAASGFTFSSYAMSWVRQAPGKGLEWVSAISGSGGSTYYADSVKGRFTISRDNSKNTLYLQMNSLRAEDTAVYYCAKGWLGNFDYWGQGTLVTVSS
VL: EIVLTQSPGTLSLSPGERATLSCRASQSVSRSYLAWYQQKPGQAPRLLIIGASTRATGIPDRFSGSGSGTDFTLTISRLEPEDFAVYYCQQGQVIPPTFGQGTKVEIK
notes: also called FAP (4G8) IgG molecule; parental 4G8 IgG

Kd [1]: 2.6 nM
B2: 28H1 (antibody, V domains shown)
VH: EVQLLESGGGLVQPGGSLRLSCAASGFTFSSHAMSWVRQAPGKGLEWVSAIWASGEQYYADSVKGRFTISRDNSKNTLYLQMNSLRAEDTAVYYCAKGWLGNFDYWGQGTLVTVSS
VL: B1 VL
notes: also called FAP(28H1); 28H1 (IgG)

Avidity [3]: 0.4 nM
binding result [4]: binds
B3: DR5(5E11)-28H1 VHCL 2 + 2 (bispecific antibody, human IgG1, kappa)
heavy: not shown
light: EIVLTQSPGTLSLSPGERATLSCRASQSVSSSYLAWYQQKPGQAPRLLIYGASSRATGIPDRFSGSGSGTDFTLTISRLEPEDFAVYYCQQGTTHPITFGQGTKVEIKRTVAAPSVFIFPPSDEQLKSGTASVVCLLNNFYPREAKVQWKVDNALQSGNSQESVTEQDSKDSTYSLSSTLTLSKADYEKHKVYACEVTHQGLSSPVTKSFNRGEC
chain: EIVLTQSPGTLSLSPGERATLSCRASQSVSRSYLAWYQQKPGQAPRLLIIGASTRATGIPDRFSGSGSGTDFTLTISRLEPEDFAVYYCQQGQVIPPTFGQGTKVEIKSSASTKGPSVFPLAPSSKSTSGGTAALGCLVKDYFPEPVTVSWNSGALTSGVHTFPAVLQSSGLYSLSSVVTVPSSSLGTQTYICNVNHKPSNTKVDKKVEPKSCD
notes: also called DR5TAA-0030
Cell Death Detection ELISA, DLD-1 cells with 3T3 cells expressing murine FAP [2]: 10 fold

Kd [5]: 20.2 nM
Kd [6]: 9.8 nM
Avidity [3]: 0.3 nM
binding result [4]: binds
Avidity [7]: 3.72 nM
Avidity [8]: 0.1 nM
B4: DR5TAA-0033 (bispecific antibody, human IgG1, kappa)
heavy: not shown
light: ADIVMTQTPASVSEPVGGTVTIKCQASQSISTYLSWYQQKPGQPPKRLIYKASTLASGVPSRFKGSGSGTDFTLTIRDLECADAATYYCQPNSGIATYGAAFGGGTEVVVKRTVAAPSVFIFPPSDEQLKSGTASVVCLLNNFYPREAKVQWKVDNALQSGNSQESVTEQDSKDSTYSLSSTLTLSKADYEKHKVYACEVTHQGLSSPVTKSFNRGEC
chain: B3 chain
notes: also called 0011-28H1
Cell Death Detection ELISA, DLD-1 cells with 3T3 cells expressing murine FAP [2]: 10 fold

FAP [RU max] [9]: 38.4 RU
B5: DR5TAA-0078 (bispecific antibody)
heavy: not shown
chain: B3 chain with R31S, I50Y, T54S, Q93T, V94T, I95H, P97I
light: B3 light with S31R, Y50I, S54T, T93Q, T94V, H95I, I97P
notes: also called format D

FAP [RU max] [9]: 41.9 RU
B6: DR5TAA-0077 (bispecific antibody, human IgG1, kappa)
heavy: not shown
chain: not shown
light: B3 light with S31R, Y50I, S54T, T93Q, T94V, H95I, I97P
notes: also called format C

FAP [RU max] [9]: 40.8 RU
Avidity [3]: 0.6 nM
B7: DR5(5E11)-28H1 VHCL 2 + 2 P329GLALA (bispecific antibody, human IgG1, kappa, L234A L235A)
heavy: not shown
light: B3 light
chain: B3 chain
notes: C-terminal lysine removed, L234A L235A P329G in Fc; also called DR5TAA-0057; format A
Cell Death Detection ELISA, DLD-1 cells with 3T3 cells expressing murine FAP [2]: 10 fold

Kd [5]: 2 nM
Kd [6]: 5.1 nM
Avidity [3]: 0.7 nM
binding result [4]: binds
Avidity [8]: 0.08 nM
B8: DR5TAA-0035 (bispecific antibody, human IgG1, kappa)
heavy: not shown
light: ADIVMTQTASPVSAAVGGTVTINCQASQSISSSYVSWYQQKPGQPPKLLIYKASTLASGVPSRFSGSGSGTQLSLTIRGVQCDDAATYYCLYGYSDVSSSEYVFGGGTEVVVRRTVAAPSVFIFPPSDEQLKSGTASVVCLLNNFYPREAKVQWKVDNALQSGNSQESVTEQDSKDSTYSLSSTLTLSKADYEKHKVYACEVTHQGLSSPVTKSFNRGEC
chain: B3 chain
notes: also called 0016-28H1
Cell Death Detection ELISA, DLD-1 cells with 3T3 cells expressing murine FAP [2]: 10 fold

binding result [10]: binds
binding result [11]: binds
binding result [12]: binds
binding result (human FAP on cells): binds
B9: Drozitumab-X-FAP_A (2 + 2) (bispecific antibody, human IgG1, lambda)
heavy: not shown
chain: B3 chain
light: SELTQDPAVSVALGQTVRITCSGDSLRSYYASWYQQKPGQAPVLVIYGANNRPSGIPDRFSGSSSGNTASLTITGAQAEDEADYYCNSADSSGNHVVFGGGTKLTVLGQPKAAPSVTLFPPSSEELQANKATLVCLISDFYPGAVTVAWKADSSPVKAGVETTTPSKQSNNKYAASSYLSLTPEQWKSHRSYSCQVTHEGSTVEKTVAPTECS
notes: 4G8 VH-CL fused to the C-terminus of the Drozitumab heavy chain; also called GA803_A01_E02A_014

FAP [RU max] [9]: 7.2 RU
B10: DR5TAA-0081 (bispecific antibody, human IgG1, kappa, L234A L235A)
heavy: not shown
light: B3 light
chain: EVQLLESGGGLVQPGGSLRLSCAASGFTFSSHAMSWVRQAPGKGLEWVSAIWASGEQYYADSVKGRFTISRDNSKNTLYLQMNSLRAEDTAVYYCAKGWLGNFDYWGQGTLVTVSSASVAAPSVFIFPPSDEQLKSGTASVVCLLNNFYPREAKVQWKVDNALQSGNSQESVTEQDSKDSTYSLSSTLTLSKADYEKHKVYACEVTHQGLSSPVTKSFNRGEC
notes: also called format F

binding result [13]: binds
binding result [14]: binds
binding result [15]: binds
binding result (human FAP on cells): binds
B11: Drozitumab-X-FAP_B (2 + 2) (bispecific antibody, human IgG1, lambda)
heavy: not shown
chain: not shown
light: B9 light
notes: 4G8 VL-CH1 fused to the C-terminus of the Drozitumab heavy chain; also called GA803_A01_E02A_015

binding result (human FAP on cells): binds
B12: 4G8_scFab_HC (bispecific antibody, human IgG1, kappa, lambda)
heavy: not shown
light: B9 light
notes: also called GA803_A01_B02A_001; Drozitumab-scFab-FAP
